Experimental data: publication PMC11651300 (Journal of the American Society for Mass Spectrometry, 2024)

Tests used:
[1] = biological target: Pyruvate kinase from rabbit (rabbit) (UniProt P11974); test: native MS
native MS = biological target: the molecule itself; test: native MS

Sequence of Pyruvate kinase from rabbit (P11974 whole entry): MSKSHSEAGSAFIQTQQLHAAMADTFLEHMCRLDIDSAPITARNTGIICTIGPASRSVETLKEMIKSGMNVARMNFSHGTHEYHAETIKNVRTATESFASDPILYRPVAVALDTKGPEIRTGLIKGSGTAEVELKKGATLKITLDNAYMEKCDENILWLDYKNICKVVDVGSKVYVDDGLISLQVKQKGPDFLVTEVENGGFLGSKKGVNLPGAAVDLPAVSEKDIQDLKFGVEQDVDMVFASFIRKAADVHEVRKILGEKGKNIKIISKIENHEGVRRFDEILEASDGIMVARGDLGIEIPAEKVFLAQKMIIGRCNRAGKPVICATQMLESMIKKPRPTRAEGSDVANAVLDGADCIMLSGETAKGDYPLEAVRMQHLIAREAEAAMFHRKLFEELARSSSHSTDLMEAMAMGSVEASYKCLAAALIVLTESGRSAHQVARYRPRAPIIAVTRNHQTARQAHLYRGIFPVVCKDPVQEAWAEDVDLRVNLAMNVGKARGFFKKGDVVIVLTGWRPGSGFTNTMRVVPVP

Molecule | stoichiometry N [1] | stoichiometry N (native MS)
Pyruvate kinase from rabbit (from UniProt P11974 1-531) (enzyme) | 4 | –
Cholera toxin B (natural protein) TPQNITDLCAEYHNTQIYTLNDKIFSYTESLAGKREMAIITFKNGAIFQVEVPGSQHIDSQKKAIERMKDTLRIAYLTEAKVEKLCVWNNKTPHAIAAISMAN | – | 5
